Several values for one entry are separate records, joined by “and”; a condition that tells them apart may be missing. Equal entries are not always repeated. Entries after “also recorded” stand apart in the source; their conditions may differ. Square brackets hold non-standard residues; d marks the D form. Peptide text beside a SMILES is read from it. * marks the point of attachment. X1 = CC(=O)N(O)CCCCCNC(=O)CCC(=O)N(O)CCCCCNC(=O)CCC(=O)N(O)CCCCCNC(=O)CCC(=O)N(O)CCCCCNC(=S)Nc1ccc(NC(=S)*)cc1
What was measured:
[1] = Tryptophan fluorescence spectra of pHLIP agents in states I, II, III; format: physicochemical; conditions: for λmax of tryptophan fluorescence, state I: in solution; for λmax of tryptophan fluorescence, state I / λmax of tryptophan fluorescence, state II: pH 8, 25.0°C; for λmax of tryptophan fluorescence, state III / λmax of tryptophan fluorescence, state II: with POPC liposomes; for λmax of tryptophan fluorescence, state III: pH 4, 25.0°C
Protocol: (§1) The interaction of the pHLIP agents with liposomes was investigated by recording the tryptophan fluorescence and circular dichroism (CD) spectra by using a PC1 spectrofluorometer (ISS, Inc) and an MOS-450 spectrometer (Biologic, Inc), respectively, with temperature control set to 25.0°C. Liposomes, consisting of large unilamellar vesicles, were prepared by extrusion. POPC (1-palmitoyl-2-oleoyl-sn-glycero-3-phosphocholine) (Avanti Polar Lipids, Inc.) in chloroform was desolvated on a rotary evaporator and dried under vacuum for several hours. The phospholipid film was rehydrated in 10 mM phosphate buffer, pH 8.0, vortexed, and passed 21 times through the extruder (50 nm membrane).
(§2) Using an excitation wavelength of 295 nm, tryptophan fluorescence spectra were recorded from 310–400 nm. CD spectra were recorded from 190–260 nm with 1-nm steps. The concentration of the peptide and the POPC liposomes varied in different experiments: 5–15 μM of pHLIP agents and 1 mM of POPC liposomes.
The pH-dependent insertion of the peptides into the lipid bilayer of the POPC liposomes was studied by monitoring either the changes in tryptophan fluorescence spectra or changes in the molar ellipticity at 222 nm as a function of the pH value. After the addition of aliquots of HCl, the pH values of the solutions containing peptide and POPC liposomes were measured using an Orion PerHecT ROSS Combination pH Micro Electrode and an Orion Dual Star pH and ISE Benchtop Meter. Fluorescence spectra were analyzed using the Protein Fluorescence and Structural Tool Kit (PFAST) ([41]) to determine the positions of spectral maxima (λ max ). The λ max and millidegree data were normalized to 0–1 and were plotted as a function of pH. The pH-dependence was fit with the Henderson-Hasselbach equation to determine the cooperativity (n) and the mid-point (pK) of transition: […]

[2] = pH-dependent insertion into lipid bilayer of POPC liposomes (Trp fluorescence and CD); format: physicochemical; conditions: with Zr, pH drop 8 to 3, Henderson-Hasselbalch fit
Protocol: as §1, §2
The pH-dependent insertion of the peptides into the lipid bilayer of the POPC liposomes was studied by monitoring either the changes in tryptophan fluorescence spectra or changes in the molar ellipticity at 222 nm as a function of the pH value. After the addition of aliquots of HCl, the pH values of the solutions containing peptide and POPC liposomes were measured using an Orion PerHecT ROSS Combination pH Micro Electrode and an Orion Dual Star pH and ISE Benchtop Meter. Fluorescence spectra were analyzed using the Protein Fluorescence and Structural Tool Kit (PFAST) ([41]) to determine the positions of spectral maxima (λ max ). The λ max and millidegree data were normalized to 0–1 and were plotted as a function of pH. The pH-dependence was fit with the Henderson-Hasselbach equation to determine the cooperativity (n) and the mid-point (pK) of transition:
Normalized pH dependence=1/1+10^n(pH−pK)

[3] = Post-mortem biodistribution, RM-1 tumor model; format: in vivo, male athymic nude mice; conditions: male, athymic nude, mouse, in vivo, iv, 1.2 nmol, total radioactivity
Protocol: (§3) The media were provided by the MSK Media Preparation Core. […] Another aliquot was diluted with the medium so that 50 µL contained 1×10^6 cells.
(§4) The imaging and biodistribution studies were performed with male (RM-1 model) and female (4T1 model) athymic nude mice and the kidney-blocking experiments were performed with female SCID mice received from Charles River Laboratories (Stone Ridge, NY). After arrival, the mice were kept in the MSK vivarium for one week before any experimental handling was performed. The animals were allowed free access to water and food, and all animal care and experimental procedures were approved by the Institutional Animal Care and Use Committee (IACUC). For the subcutaneous allografts, a 1-to-1 ratio of Corning Matrigel Matrix and the cell solution was prepared and stored on ice for the injections. Each mouse received a subcutaneous injection of 100 µL (50 µL cell solution, viability > 90%, + 50 µL Matrigel) into the flank on the level of the right shoulder. The injections were performed under anesthesia (2% isoflurane, Baxter Healthcare, Deerfield, IL, USA).
(§5) The mice were intravenously injected (tail vein) with the radiolabeled pHLIP conjugates (1.2 nmol, 7.4 MBq/200 µCi, 100 µL, in sterile filtered PBS). The activity of the syringe prior to injection and after injection was used to determine the percent of injectate administered.
(§6) For the biodistribution studies the tumor-bearing mice were randomized before the injections. Only mice with suitable tumors (150–300 mm^3) were utilized. An exception was made for the 120-hour timepoint, for which only mice with smaller tumors (150 mm^3) were selected. The mice were grouped in cohorts of four. At the respective timepoint, the mice were euthanized (by CO2 asphyxiation, followed by cervical dislocation) and their blood was collected by cardiac puncture as a terminal procedure, followed by quick removal of the tumors. After this, the other organs/samples were collected. […] The exact activities of all samples of one mouse were determined by an Capintec® CRC-55tR dose calibrator. These decay-corrected measurements were used to determine a calibration factor and calibrate all counts to the corresponding activities. Activity concentrations were calculated as percentage injected dose per tissue weight (%ID/g wet tissue). All data was processed and visualized using Origin 8.5.

[4] = test system: RM-1 tumor allografts; assay: Post-mortem biodistribution, RM-1 tumor model; format: in vivo, male athymic nude mice; conditions: mouse, in vivo, iv, 1.2 nmol, 48 h
Protocol: as §3, §4, §5, §6

[5] = test system: kidney uptake of [89Zr]Zr-DFOsqa-Lys-Var3; assay: Kidney-blocking study (PET imaging); format: in vivo, healthy female SCID mice; conditions: drug IV 30 min before 7.4 MBq [89Zr]Zr-DFOsqa-Lys-Var3 (1.2 nmol); two doses per drug, n=2 each; PET 24 h p.i. vs control mice
Protocol: as §4, with “USA). Palpable tumors of similar size (100–300 mm^3) developed 5–8 days after grafting.” for “USA).”
PET images were obtained at the respective timepoints with the mice under anesthesia (2% isoflurane) on a microPET Focus 120 (Concorde Microsystems) or an Inveon PET-CT (Siemens) rodent scanner. All images were analyzed using the Medical Imaging Data Examiner Amide (version 0.9.0) or the Inveon reconstruction software suite. The counting rates in the reconstructed images were converted to percent of injected dose per weight (%ID/g) by applying a system-specific calibration factor. At the final timepoint, the remaining mice were euthanized (by CO2 asphyxiation, followed by cervical dislocation) and their tumors were resected for histological analysis.
Additional experiments were performed to investigate the influence of various kidney-uptake blockers and diuretics. Healthy female SCID mice received a “blocking agent” 30 minutes prior to the injection of [^89Zr]Zr-DFOsqa-Lys-Var3 (7.4 MBq/200 µCi, 1.2 nmol). […] The experimental set-up can be found in Table S6 .
Table S6. Summary of the kidney-blocking study. Healthy female SCID mice (2 mice per experiment/ dosage + 2 control mice without treatment, total of 22 mice) received a blocking agent intravenously 30 minutes prior to the injection of 7.4 MBq/200 µCi [89Zr]Zr-DFOsqa-Lys-Var3 (1.2 nmol pHLIP).
The drug dose was calculated as weight of drug (mg) per weight of mouse (kg). A potential kidney […]
calibrated images to the control mice (24 hours post injection). No drug led to a significant reduction […]
drug (IV 30 min before dose [mg/kg] effect on kidney mechanism of action [89Zr]Zr-pHLIP) (n=2) uptake […]
and water from the body; acts as a diuretic […]
organic anion transporter; blocks the uptake of organic anions […]
tubule via inhibition of the Na/Cl symporter; acts as a diuretic […]
increased – serum levels decreased

[6] = change of Trp fluorescence maximum

SMILES: CC(=O)N[C@H](C)C(=O)N[C@H](CCCCNC(=S)Nc1ccc(NC(=S)NCCCCCN(O)C(=O)CCC(=O)NCCCCCN(O)C(=O)CCC(=O)NCCCCCN(O)C(=O)CCC(=O)NCCCCCN(O)C(C)=O)cc1)C(=O)N[C@H](CC(=O)O)C(=O)N[C@H](CC(=O)O)C(=O)N[C@H](CCC(N)=O)C(=O)N[C@H](CC(N)=O)C(=O)N1CCC[C@@H]1C(=O)N[C@H](Cc1c[nH]c2ccccc12)C(=O)N[C@H](CCCNC(=N)N)C(=O)N[C@H](C)C(=O)N[C@H](Cc1ccc(O)cc1)C(=O)N[C@H](CC(C)C)C(=O)N[C@H](CC(=O)O)C(=O)N[C@H](CC(C)C)C(=O)N[C@H](CC(C)C)C(=O)N[C@H](Cc1ccccc1)C(=O)N1CCC[C@@H]1C(=O)N[C@@H](C(=O)N[C@H](CC(=O)O)C(=O)N[C@@H](C(=O)N[C@H](CC(C)C)C(=O)N[C@H](CC(C)C)C(=O)N[C@H](CC(C)C)C(=O)N[C@H](CC(=O)O)C(=O)N[C@H](CC(C)C)C(=O)N[C@H](CC(C)C)C(=O)N[C@H](Cc1c[nH]c2ccccc12)C(=O)N[C@H](C)C(=O)O)[C@H](C)O)[C@H](C)O (89Zr complex, metal not drawn) [DFO*-Lys-Var3] (Ac-[dA][dK](X1)[dD][dD][dQ][dN][dP][dW][dR][dA][dY][dL][dD][dL][dL][dF][dP][dT][dD][dT][dL][dL][dL][dD][dL][dL][dW][dA]-OH; C-terminus assumed)
- λmax of tryptophan fluorescence, state I ([1]; with Zr, excitation 295 nm): 352.0 nm
- λmax of tryptophan fluorescence, state III ([1]; with Zr): 341.4 nm
- λmax of tryptophan fluorescence, state II ([1]; with Zr): 348.2 nm
- λmax of tryptophan fluorescence, state I ([1]; without Zr): 351.9 nm
- λmax of tryptophan fluorescence, state III ([1]; without Zr): 341.4 nm
- λmax of tryptophan fluorescence, state II ([1]; without Zr): 349.3 nm
- cooperativity (n), Fluor. [2, 6]: 0.79 and 0.8
- midpoint of transition (pK), Fluor. [2, 6]: 5.87
- cooperativity (n), CD ([2]; ellipticity at 222 nm (coil-helix transition)): 1.46
- midpoint of transition (pK), CD ([2]; ellipticity at 222 nm): 5.47

SMILES: CC(=O)N[C@H](C)C(=O)N[C@H](CCCCNC(=S)Nc1ccc(NC(=S)NCCCCCN(O)C(=O)CCC(=O)NCCCCCN(O)C(=O)CCC(=O)NCCCCCN(O)C(C)=O)cc1)C(=O)N[C@H](CC(=O)O)C(=O)N[C@H](CC(=O)O)C(=O)N[C@H](CCC(N)=O)C(=O)N[C@H](CC(N)=O)C(=O)N1CCC[C@@H]1C(=O)N[C@H](Cc1c[nH]c2ccccc12)C(=O)N[C@H](CCCNC(=N)N)C(=O)N[C@H](C)C(=O)N[C@H](Cc1ccc(O)cc1)C(=O)N[C@H](CC(C)C)C(=O)N[C@H](CC(=O)O)C(=O)N[C@H](CC(C)C)C(=O)N[C@H](CC(C)C)C(=O)N[C@H](Cc1ccccc1)C(=O)N1CCC[C@@H]1C(=O)N[C@@H](C(=O)N[C@H](CC(=O)O)C(=O)N[C@@H](C(=O)N[C@H](CC(C)C)C(=O)N[C@H](CC(C)C)C(=O)N[C@H](CC(C)C)C(=O)N[C@H](CC(=O)O)C(=O)N[C@H](CC(C)C)C(=O)N[C@H](CC(C)C)C(=O)N[C@H](Cc1c[nH]c2ccccc12)C(=O)N[C@H](C)C(=O)O)[C@H](C)O)[C@H](C)O (89Zr complex, metal not drawn) [DFO-Lys-Var3]
- tissue uptake at 48 h ([3]; Blood uptake): 0.5 ± 0.1 %ID/g
- tissue uptake at 48 h ([3]; Brain uptake): 0.06 ± 0.01 %ID/g
- tissue uptake at 48 h ([3]; Heart uptake): 1.3 ± 0.03 %ID/g
- tissue uptake at 48 h ([3]; Kidneys uptake): 27.9 ± 3.6 %ID/g
- tissue uptake at 48 h ([3]; Liver uptake): 8.7 ± 0.8 %ID/g
- tissue uptake at 48 h ([3]; Lungs uptake): 2 ± 0.6 %ID/g
- tissue uptake at 48 h ([3]; Muscle uptake): 0.5 ± 0.1 %ID/g
- tissue uptake at 48 h ([3]; Pancreas uptake): 1 ± 0.2 %ID/g
- tissue uptake at 48 h ([3]; Skin uptake): 1.7 ± 0.3 %ID/g
- tissue uptake at 48 h ([3]; Spleen uptake): 7.2 ± 0.7 %ID/g
- tissue uptake at 48 h ([3]; Tibia uptake): 1.4 ± 0.2 %ID/g
- Tumor uptake [4]: 6.9 ± 1.9 %ID/g

SMILES: NS(=O)(=O)c1cc(C2(O)NC(=O)c3ccccc32)ccc1Cl (stereo not drawn) [chlorthalidone]
- effect on kidney uptake [5]: not significant; also recorded: none of these drugs led to a significant reduction of kidney uptake

SMILES: CCCN(CCC)S(=O)(=O)c1ccc(C(=O)O)cc1 [probenecid]
- effect on kidney uptake [5]: not significant; also recorded: none of these drugs led to a significant reduction of kidney uptake
